For the assay, the target named is MBP-SpyTag. Briefly: SDS-PAGE coupling assay, biotin-HPDP-modified Catcher, without TCEP, one hour.

B1: SpyCatcher Ala87→Cys modified with biotin-HPDP (designed binder)
chain: VTTLSGLSGEQGPSGDMTTEEDSATHIKFSKRDEDGRELAGATMELRDSSGKTISTWISDGHVKDFYLYPGKYTFVETAAPDGYEVCTPIEFTVNEDGQVTVDGEATEGDAHT
Turning to B1, the loss of activity was found to be 50%.
